Reference: US20190264213A1 (YEDA RESEARCH AND DEVELOPMENT, published 2019)

B1: phi3T AimR receptor with C-terminal 6xHis-tag (purified) (receptor)
chain: MIKNECEKDNQLAARLAKLAGYEKVNGFYKFVNTPEKEMENLGGLLKIVKNLFPDSEEQLLSEYFLELDPNKKCARQSVEYSDINQWDTLTDKIIINLCNSKNSTSQEWGKVYSLHRKLNKNEISLNDAIRESGKCKIKSAEMLFFSNAMLMYAYLNIGEFGLMKSTSKLLEFDDLPEGFIKESFKSRVSMLEANISLNENSLLEARQHSNRAIENSNVNRICFFAYLTIGNTLIFEDYDEAKKAYIKGQKYAKNPVHQEMLDGALCFLSNIWKKENQWVNYNSDNIKYLQLRAFYYINQGNIEEATEILDELSSRDQDENELGFYYYYKGLISQDKTDYYKSIRYFKKSDDKYFIQLPLLQLERMGADLELLNLISIHHHHHH
notes: Expressed in E. coli BL21(DE3) from pET28a and purified in two steps; Migrates as a homodimer in gel filtration without peptide and as a monomer with SAIRGA; also called His-tagged AimR; purified AimR
B2: GMPRGA peptide (spBeta arbitrium peptide, mature AimP) (peptide)
peptide: GMPRGA
notes: Synthetic peptide, 98% purity, desalted (Peptide 2.0 Inc.); also called spBeta-derived GMPRGA peptide

Tests used:
[1] = biological target: the molecule itself; assay: analytical gel filtration (Superdex 200 Increase), self-association
Experimental: Pure AimR was injected to an analytical gel filtration column (Superdex_200_Increase_10/30 GL, GE Healthcare) equilibrated with buffer containing 20 mM Tris pH 8, 0.3 M NaCl, 2 mM TCEP. […] The column was calibrated (inset of FIG. 4C) by monitoring the migration positions of the following known proteins/polymers: blue dextran (2000 kDa), Thyroglobulin (669 kDa), Apoferritin (443 kDa), beta-amylase (200 kDa), alcohol dehydrogenase (150 kDa), Albumin (66 kDA) and Carbonic anhydrase (29 kDa).

[2] = biological target: B1; assay: microscale thermophoresis (MST), label-free
Experimental: Two-step purified 6×His-tagged AimR stored in Tris/NaCl buffer (50 mM Tris pH 8.0, 150 mM NaCl, 2 mM TCEP) at −80° C. was thawed on ice and centrifuged at 21,000 g for 10 minutes at 4° C. prior to analysis. […] AimR was diluted to 200 nM and was incubated with 16 different peptide concentrations varying between 9-4000 nM, which were prepared in Tris/NaCl buffer containing 0.1% [v/v] Pluronic acid (NanoTemper). Roughly 3 μl were loaded into NT.LabelFree Zero-Background Premium Coated Capillaries (NanoTemper) and inserted into a Monolith NT.LabelFree device (NanoTemper). MST experiments were performed at 60% MST power (infra-red laser) and 20% LED power at 23° C. using the Monolith NT.LabelFree instrument (Nanotemper). Ratios between normalized initial fluorescence and post-temperature-jump and thermophoresis were calculated and averaged from 3 independent runs (runs were incubated for 20 minutes at room temperature before the measurement).

B1
binding result [1]: binds

B2
binding result [2]: no binding (tested: peptide 9-4000 nM, AimR 200 nM)
